In assay [1] the target is recombinant allophycocyanin of Agarophyton chilensis, αβ unit (Agarophyton chilensis). As to the kind of experiment: SEC; Superdex 200 HiLoad 16/60; oligomer size estimated from a calibration curve of MW standards 1,750-670,000 Da (Bio-Rad gel filtration standard); oligomer of αβ units.
The target in assay [2] is native allophycocyanin of Agarophyton chilensis, αβ unit (Agarophyton chilensis). Described as above.

As a reminder, the stoichiometry N is the number of molecules, sites or subunits per partner or assembly. With “recombinant allophycocyanin of Agarophyton chilensis, αβ unit (complex)”, the stoichiometry N in assay [1] is 3.

Consider “native allophycocyanin of Agarophyton chilensis, αβ unit (complex)”, for which the stoichiometry N in assay [2] was 3.
